Protein production data for 6 sequences are collected here from a protein production outcome set (Wang et al. 2014).

This series can be described thus: label from the status in PepcDB records.
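Further: failed if final PepcDB status was selected cloned or expressed and not failed if soluble or beyond.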

“MVFLKRFRAYGFKSYADEITINFTHSMTGIVGPNGSGKSNVVDALKWVLGERSMKHLRSKSGDDMIFFGSKDKPASKLAEVELTFDNSQKLLHDPRPEISVMRRIYRGSGQSEYYINGELVTLKEISGIFADIGLEKGSLGIISQGSVSFVEAKPEERRKIFEDASGIGRYTKRKEEVTNQLARTVQNLKQVSIVLNELKKDLKKLTIQADKAQRFVKLKEELKELELSVLVADYLKSQGELDRFNHQIGYIEQDFKLHEPQLQLLEDQLNIFNQRFRDADEQSIKLQQELQAVYQTINELEQRKAVIDVQLKNELSKKDEKHKIQALKKLIRVDQAQLESLQAQVLKTTSEITLLTNELSTVQTELDTTKLNLNQNSAALVYQQAQQEFLKAQNEEWVKTNPAHVLVKNVKALTGLLNTLNTFLKFEKQYEKALLKALGKSIGYLVVNNNLAALKAIDFLLTNQIGQVTFLPIDDIAFDTKIAPEHMEILQQLDGFLGVGSDHVSCDESLQPIVNALLGQVIIASDLQAALKLSSYTYKLYRVVTLNGETVYAGGIIQGGYVKDNLSLYNLQEKLASSEANITQLEHNEKQLRTNLTSLETKLNELNKKLKYEEILLEKFNERVNHTNKAILSYKIEYEQLTNESFDGTPHSFDETRLVESLNRAWAERDELNSQLKLNQELKETLAKSIKLAEAKTADLRALLDEQRSQLVLAREGKIRFENTIHNITDKINGGYKLTMEFAIANYNKPIKLSTMQAQNKIARMQSQLDEMGPINLESIAEIADKQKRFDDINGEYESLQTAIKDLQTAIGEIDELACKEFDELIQKVNAELPKTFNYLFGGGSCQIRYTDTDNVLLSGIEVFANPPGKNVANLMLLSGGEKTLVALSVLFSILRVSAFPLVILDEAESALDPANVERFANIIGNSSNNTQFLIITHRQGTMMKCDMLLGAAMQTKGVTKTFAVSLEKAEQYISKDKQN”: the protein production result is “failed”.
For the sequence “MVFPSEQEQIEKFEKDHVAQHYFEVLRTLISKKSVFAQQVGLKEVANYLGEIFKRVGAEVEIDESYTAPFVMAHFKSSRPDAKTLIFYNHYDTVPADGDQVWTEDPFTLSVRNGFMYGRGVDDDKGHITARLSALRKYMQHHDDLPVNISFIMEGAEESASTDLDKYLEKHADKLRGADLLVWEQGTKNALEQLEISGGNKGIVTFDAKVKSADVDIHSSYGGVVESAPWYLLQALQSLRAADGRILVEGLYEEVQEPNEREMALLETYGQRNPEEVSRIYGLELPLLQEERMAFLKRFFFDPALNIEGIQSGYQGQGVKTILPAEASAKLEVRLVPGLEPHDVLEKIRKQLDKNGFDKVELYYTLGEMSYRSDMSAPAILNVIELAKKFYPQGVSVLPTTAGTGPMHTVFDALEVPMVAFGLGNANSRDHGGDENVRIADYYTHIELVEELIRSYE”, the protein production result is given as “not failed”.
In the case of “MVGLGTVINVILIIVGGFVGLFLKNFLKESLQKSLMQAMGVAVLFISISGVLEKMMLVEKSHLISNHTNMMIITLALGTVLGELLSLDSYIDKFGNYLKQKTGSGNDIKFVEAFVTSTCTVCIGAMAVVGSIQDGIAADHSILFAKGMLDMIIIAIMTVSLGKGALFSALPVALLQGSLTIVAFFMGSLLNPSSLDYLNLVGNMLIFCVGVNLLFNLNIKVINMLPAIILAILWGSFI” it was “failed”; in that of “MVIDFSAFYELPRLIDRLAAEGESSFAASRGQAVFPPLNIGEDESAVYVRALIPGGDLSALDLTLTDKTLVLRGELPPVRGRYYRQERRTGPFQRVVLLNVPIDRDRVHAAMRDGVLEVVLPKAQQERLRTIHITTR”, “failed”; in that of “MVIETGVWIVLLGATVTAVATGLGALPFLFVRDIGDWWLGVFNAAAGGLMLAASHSLITEGSMLSTGRTLIGILVGLALILGANTFISRGDDHDVAELAGADARKALLILGIMTAHSFAEGVGVGVSYGGGDELGAFITAAIAVHNIPEGLAISLVLVPRGTPLWKAAGWSIFTSLPQPLMAVPAFLFVLVFEPFLPIGFGLAAGAMIWMVFAELIPDALEDVPGPTAGAAVTLAFAALFAFQHFVLHV”, “failed”.
In the case of “MVIGSGVFLTRTCYLRLQPPSLVLRRRFCAATTACSVPLNGNKKKKSEKEKVIVISGPTGAGKSRLAMELAKRLNGEIISADSVQVYKGLDVGSAKPSDSDRKVVPHHLIDILHPSQDYSVGQFYDDGRQATKDILNRGRVPIVTGGTGLYLRWFMYGKPDVPKPSPEVIAEAHDMLVGFQTEYNWDAAVELVVNAGDPKASSLPRNDWYRLRRSLEILKSTGSPPSSFRIPYDSFRVNLVAPDADDFLEDGSSADISIQNIETDLDYDFLCFFLSSPRVALYRSIDFRCEDMLSGPNGVLSEARWLLDLGLLPNSNPATRAIGYRQAMEYLLQCRRYEGESSPREFYAFLNKFQTASRNFAKRQMTWFRCEPMYHWLNASKPLDSILQCIYDAYESEAEMVEIPESLRMSKDVRDSREASELKGYRSKNRHFVRREDCSSVLEWIRSEGCKSEASCVESAIA” it was “failed”.
